Paper PMC2783235
Values belong to the substance of their own block, whether it stands above or below them.

How the values were obtained:
[1] = target: A296C (single-Cys mutant of FT-HT-Xa) (S. cerevisiae) (UniProt D6VTK4); test: SDS-PAGE and western blot of membranes
[2] = target: A296C (single-Cys mutant of FT-HT-Xa) (S. cerevisiae) (UniProt D6VTK4); test: cross-linking
[3] = target: A296C (single-Cys mutant of FT-HT-Xa) (S. cerevisiae) (UniProt D6VTK4); test: cross-linking; remark: listed apart in the source
[4] = target: A296C (single-Cys mutant of FT-HT-Xa) (S. cerevisiae) (UniProt D6VTK4); test: cross-linking; remark: listed apart in the source
[5] = target: L64C (single-Cys mutant of FT-HT-Xa) (S. cerevisiae) (UniProt D6VTK4); test: SDS-PAGE and western blot of membranes
[6] = target: L64C (single-Cys mutant of FT-HT-Xa) (S. cerevisiae) (UniProt D6VTK4); test: cross-linking
[7] = target: L64C (single-Cys mutant of FT-HT-Xa) (S. cerevisiae) (UniProt D6VTK4); test: cross-linking; remark: listed apart in the source
[8] = target: L64C (single-Cys mutant of FT-HT-Xa) (S. cerevisiae) (UniProt D6VTK4); test: cross-linking; remark: listed apart in the source
[9] = target: L291C (single-Cys mutant of FT-HT-Xa) (S. cerevisiae) (UniProt D6VTK4); test: SDS-PAGE and western blot of membranes
[10] = target: L291C (single-Cys mutant of FT-HT-Xa) (S. cerevisiae) (UniProt D6VTK4); test: cross-linking
[11] = target: L291C (single-Cys mutant of FT-HT-Xa) (S. cerevisiae) (UniProt D6VTK4); test: cross-linking; remark: listed apart in the source
[12] = target: L291C (single-Cys mutant of FT-HT-Xa) (S. cerevisiae) (UniProt D6VTK4); test: cross-linking; remark: listed apart in the source
[13] = target: M294C (single-Cys mutant of FT-HT-Xa) (S. cerevisiae) (UniProt D6VTK4); test: SDS-PAGE and western blot of membranes
[14] = target: M294C (single-Cys mutant of FT-HT-Xa) (S. cerevisiae) (UniProt D6VTK4); test: cross-linking
[15] = target: M294C (single-Cys mutant of FT-HT-Xa) (S. cerevisiae) (UniProt D6VTK4); test: cross-linking; remark: listed apart in the source
[16] = target: M294C (single-Cys mutant of FT-HT-Xa) (S. cerevisiae) (UniProt D6VTK4); test: cross-linking; remark: listed apart in the source
[17] = target: S292C (single-Cys mutant of FT-HT-Xa) (S. cerevisiae) (UniProt D6VTK4); test: SDS-PAGE and western blot of membranes
[18] = target: S292C (single-Cys mutant of FT-HT-Xa) (S. cerevisiae) (UniProt D6VTK4); test: cross-linking
[19] = target: S292C (single-Cys mutant of FT-HT-Xa) (S. cerevisiae) (UniProt D6VTK4); test: cross-linking; remark: listed apart in the source
[20] = target: S292C (single-Cys mutant of FT-HT-Xa) (S. cerevisiae) (UniProt D6VTK4); test: cross-linking; remark: listed apart in the source
[21] = target: S293C (single-Cys mutant of FT-HT-Xa) (S. cerevisiae) (UniProt D6VTK4); test: SDS-PAGE and western blot of membranes
[22] = target: S293C (single-Cys mutant of FT-HT-Xa) (S. cerevisiae) (UniProt D6VTK4); test: cross-linking
[23] = target: S293C (single-Cys mutant of FT-HT-Xa) (S. cerevisiae) (UniProt D6VTK4); test: cross-linking; remark: listed apart in the source
[24] = target: S293C (single-Cys mutant of FT-HT-Xa) (S. cerevisiae) (UniProt D6VTK4); test: cross-linking; remark: listed apart in the source
[25] = target: T65C (single-Cys mutant of FT-HT-Xa) (S. cerevisiae) (UniProt D6VTK4); test: SDS-PAGE and western blot of membranes
[26] = target: T65C (single-Cys mutant of FT-HT-Xa) (S. cerevisiae) (UniProt D6VTK4); test: cross-linking
[27] = target: T65C (single-Cys mutant of FT-HT-Xa) (S. cerevisiae) (UniProt D6VTK4); test: cross-linking; remark: listed apart in the source
[28] = target: T65C (single-Cys mutant of FT-HT-Xa) (S. cerevisiae) (UniProt D6VTK4); test: cross-linking; remark: listed apart in the source
[29] = target: W295C (single-Cys mutant of FT-HT-Xa) (S. cerevisiae) (UniProt D6VTK4); test: SDS-PAGE and western blot of membranes
[30] = target: W295C (single-Cys mutant of FT-HT-Xa) (S. cerevisiae) (UniProt D6VTK4); test: cross-linking
[31] = target: W295C (single-Cys mutant of FT-HT-Xa) (S. cerevisiae) (UniProt D6VTK4); test: cross-linking; remark: listed apart in the source
[32] = target: W295C (single-Cys mutant of FT-HT-Xa) (S. cerevisiae) (UniProt D6VTK4); test: cross-linking; remark: listed apart in the source

Substance: L64C (single-Cys mutant of FT-HT-Xa) (from UniProt D6VTK4 1-431) (receptor)
- percent dimer [5]: 15.8%
- percent dimer [6]: 11.3%
- percent dimer [7]: 14.6%
- percent dimer [8]: 13.6%

Substance: M294C (single-Cys mutant of FT-HT-Xa) (from UniProt D6VTK4 1-431) (receptor)
- percent dimer [13]: 27%
- percent dimer [14]: 75.6%
- percent dimer [15]: 57.8%
- percent dimer [16]: 50.8%

Substance: S292C (single-Cys mutant of FT-HT-Xa) (from UniProt D6VTK4 1-431) (receptor)
- percent dimer [17]: 30.2%
- percent dimer [18]: 82.3%
- percent dimer [19]: 75.5%
- percent dimer [20]: 65.9%

Substance: S293C (single-Cys mutant of FT-HT-Xa) (from UniProt D6VTK4 1-431) (receptor)
- percent dimer [21]: 21.1%
- percent dimer [22]: 70.2%
- percent dimer [23]: 38.5%
- percent dimer [24]: 44%

More lines, now with the values ahead:

- percent dimer [1]: 14.8%
- percent dimer [2]: 91.1%
- percent dimer [3]: 73.6%
- percent dimer [4]: 82.1%
Substance: A296C (single-Cys mutant of FT-HT-Xa) (from UniProt D6VTK4 1-431) (receptor)

- percent dimer [9]: 31.8%
- percent dimer [10]: 66.4%
- percent dimer [11]: 52%
- percent dimer [12]: 44.5%
Substance: L291C (single-Cys mutant of FT-HT-Xa) (from UniProt D6VTK4 1-431) (receptor)

- percent dimer [25]: 16.2%
- percent dimer [26]: 14.4%
- percent dimer [27]: 15.9%
- percent dimer [28]: 12.8%
Substance: T65C (single-Cys mutant of FT-HT-Xa) (from UniProt D6VTK4 1-431) (receptor)

- percent dimer [29]: 15.7%
- percent dimer [30]: 95.2%
- percent dimer [31]: 76.2%
- percent dimer [32]: 86.3%
Substance: W295C (single-Cys mutant of FT-HT-Xa) (from UniProt D6VTK4 1-431) (receptor)
